Measurements taken from the Human Domainome abundance scans (Beltran et al. 2025).
± gives the uncertainty stated by the source.

B1: Tumor protein 63, residues 545 to 610; numbered along this chain, Q9H3D4 (parent)
chain: TDCSIVSFLARLGCSSCLDYFTTQGLTTIYQIEHYSMDDLASLKIPEQFRHAIWKGILDHRQLHEF

Variants of: B1
Experiment: abundance fitness (aPCA) (normalised: wild type 0, dead -1); higher = more abundant; growth selection in yeast, the domain comes from the species named
Conditions: Homo sapiens
With D2C the abundance fitness was -0.19 ± 0.042.
Variant E65P has an abundance fitness of -0.082 ± 0.066.
Variant H64T has an abundance fitness of 0.011 ± 0.035.
Work on V6I yielded an abundance fitness of -0.034 ± 0.032.
L63P showed an abundance fitness of -0.008 ± 0.043.
Work on C3F yielded an abundance fitness of -0.018 ± 0.063.
For Q31E, the abundance fitness was -0.03 ± 0.051.
In the case of D38Q, the abundance fitness is reported as -0.026 ± 0.045.
G13T showed an abundance fitness of -0.188 ± 0.073.
Work on L63R yielded an abundance fitness of -0.045 ± 0.023.
Q24N showed an abundance fitness of -0.089 ± 0.083.
T27E gave an abundance fitness of -0.04 ± 0.029.
Work on L26P yielded an abundance fitness of -0.692 ± 0.065.
Work on L26C yielded an abundance fitness of -0.174 ± 0.025.
Variant C14F has an abundance fitness of -0.111 ± 0.059.
H51T showed an abundance fitness of 0.003 ± 0.026.
L12P gave an abundance fitness of -0.726 ± 0.056.
In the case of T28W, the abundance fitness is reported as -0.04 ± 0.03.
Variant L12Y has an abundance fitness of -0.048 ± 0.034.
S42N gave an abundance fitness of 0.013 ± 0.025.
For A41C, the abundance fitness was 0.012 ± 0.036.
In the case of L9Y, the abundance fitness is reported as -0.783 ± 0.12.
Variant C3I has an abundance fitness of -0.029 ± 0.031.
Work on L12N yielded an abundance fitness of -0.107 ± 0.033.
T22P showed an abundance fitness of -0.78 ± 0.055.
F8S gave an abundance fitness of -0.822 ± 0.044.
M37S showed an abundance fitness of -0.083 ± 0.025.
Work on A10W yielded an abundance fitness of -0.18 ± 0.054.
For T27D, the abundance fitness was -0.057 ± 0.029.
Work on I32L yielded an abundance fitness of -0.062 ± 0.026.
For S4L, the abundance fitness was -0.038 ± 0.017.
For S36A, the abundance fitness was -0.062 ± 0.025.
In the case of D2V, the abundance fitness is reported as -0.22 ± 0.024.
With I53H the abundance fitness was -0.887 ± 0.071.
Variant E47H has an abundance fitness of -0.067 ± 0.055.
L18S showed an abundance fitness of -0.018 ± 0.022.
D2K gave an abundance fitness of -0.099 ± 0.037.
Y20K gave an abundance fitness of -0.02 ± 0.024.
F66L showed an abundance fitness of -0.022 ± 0.072.
For T1I, the abundance fitness was -0.006 ± 0.041.
Variant D59K has an abundance fitness of -0.06 ± 0.052.
With A52N the abundance fitness was -0.092 ± 0.036.
Variant A41V has an abundance fitness of -0.002 ± 0.023.
For T1S, the abundance fitness was -0.047 ± 0.027.
Variant S7R has an abundance fitness of -0.086 ± 0.02.
In the case of L9P, the abundance fitness is reported as -0.928 ± 0.14.
G25R gave an abundance fitness of -0.093 ± 0.017.
In the case of L40Q, the abundance fitness is reported as -0.909 ± 0.08.
In the case of A10T, the abundance fitness is reported as -0.134 ± 0.065.
K55L showed an abundance fitness of -0.06 ± 0.025.
Variant I5G has an abundance fitness of -0.878 ± 0.052.
In the case of L12R, the abundance fitness is reported as -0.112 ± 0.024.
In the case of E33Y, the abundance fitness is reported as -0.098 ± 0.064.
For G25V, the abundance fitness was -0.866 ± 0.079.
With P46F the abundance fitness was -0.913 ± 0.099.
Variant A41R has an abundance fitness of -0.039 ± 0.025.
H64F showed an abundance fitness of -0.064 ± 0.031.
For A10N, the abundance fitness was -0.146 ± 0.054.
H60P showed an abundance fitness of -0.38 ± 0.042.
H60W showed an abundance fitness of -0.017 ± 0.038.
Work on I29M yielded an abundance fitness of 0.042 ± 0.047.
For G56E, the abundance fitness was -0.239 ± 0.04.
With G13V the abundance fitness was -0.804 ± 0.042.
With S15G the abundance fitness was -0.059 ± 0.029.
With V6T the abundance fitness was 0.016 ± 0.035.
C17T showed an abundance fitness of -0.087 ± 0.024.
Variant F21K has an abundance fitness of -1.15 ± 0.16.
F8E gave an abundance fitness of -0.711 ± 0.056.
With L40G the abundance fitness was -0.993 ± 0.041.
For T27M, the abundance fitness was -0.107 ± 0.033.
In the case of I29T, the abundance fitness is reported as -0.046 ± 0.024.
L9D gave an abundance fitness of -0.474 ± 0.15.
Y35Q showed an abundance fitness of -0.394 ± 0.04.
L63F showed an abundance fitness of -0.105 ± 0.071.
With C17M the abundance fitness was -0.025 ± 0.033.
With I29W the abundance fitness was -0.052 ± 0.028.
I45L showed an abundance fitness of -0.034 ± 0.021.
T1P showed an abundance fitness of -0.458 ± 0.16.
In the case of L40D, the abundance fitness is reported as -0.897 ± 0.096.
T23H gave an abundance fitness of 0.076 ± 0.069.
I57C gave an abundance fitness of -0.107 ± 0.035.
With G56W the abundance fitness was -0.811 ± 0.063.
I57V gave an abundance fitness of -0.082 ± 0.023.
With H51V the abundance fitness was -0.034 ± 0.022.
Work on S4K yielded an abundance fitness of -0.075 ± 0.029.
G25M gave an abundance fitness of -0.362 ± 0.031.
D38S gave an abundance fitness of -0.029 ± 0.042.
P46V gave an abundance fitness of -0.922 ± 0.079.
In the case of G25H, the abundance fitness is reported as -0.099 ± 0.053.
With L26Q the abundance fitness was -0.345 ± 0.041.
Work on L63S yielded an abundance fitness of 0.005 ± 0.022.
Work on L18I yielded an abundance fitness of -0.036 ± 0.029.
With C3S the abundance fitness was -0.011 ± 0.022.
R61I showed an abundance fitness of -0.062 ± 0.041.
K44E gave an abundance fitness of 0.002 ± 0.046.
L58F showed an abundance fitness of -0.034 ± 0.029.
In the case of A41I, the abundance fitness is reported as 0.003 ± 0.041.
A10H gave an abundance fitness of -0.16 ± 0.053.
In the case of Y35T, the abundance fitness is reported as -0.318 ± 0.028.
Work on R61A yielded an abundance fitness of -0.033 ± 0.029.
Work on Q48C yielded an abundance fitness of -0.064 ± 0.03.
With F8P the abundance fitness was -0.938 ± 0.091.
Work on H60D yielded an abundance fitness of -0.13 ± 0.04.
With T22C the abundance fitness was -0.166 ± 0.054.
With I57K the abundance fitness was -0.51 ± 0.043.
For T23S, the abundance fitness was -0.037 ± 0.023.
Work on C3V yielded an abundance fitness of -0.15 ± 0.021.
With M37V the abundance fitness was -0.011 ± 0.027.
Work on C17R yielded an abundance fitness of -0.838 ± 0.04.
Variant L18E has an abundance fitness of -0.014 ± 0.066.
With Q31N the abundance fitness was -0.133 ± 0.02.
In the case of S42T, the abundance fitness is reported as -0.01 ± 0.026.
Y35P showed an abundance fitness of -0.955 ± 0.15.
E33P showed an abundance fitness of -0.772 ± 0.082.
Variant L26I has an abundance fitness of -0.014 ± 0.028.
For I29F, the abundance fitness was 0.063 ± 0.035.
In the case of A41P, the abundance fitness is reported as -0.734 ± 0.062.
For D59Y, the abundance fitness was -0.054 ± 0.042.
In the case of L58E, the abundance fitness is reported as -0.015 ± 0.03.
For Y20V, the abundance fitness was -0.109 ± 0.024.
In the case of Y30F, the abundance fitness is reported as -0.112 ± 0.086.
Work on L12K yielded an abundance fitness of -0.146 ± 0.048.
Variant L18V has an abundance fitness of -0.013 ± 0.022.
For F49K, the abundance fitness was -0.027 ± 0.047.
Work on Q31F yielded an abundance fitness of -0.695 ± 0.031.
For P46M, the abundance fitness was -0.928 ± 0.084.
Work on K44A yielded an abundance fitness of -0.037 ± 0.025.
Q24C showed an abundance fitness of -0.048 ± 0.032.
Variant L12A has an abundance fitness of -0.068 ± 0.027.
Y30S showed an abundance fitness of 0.038 ± 0.03.
L40R showed an abundance fitness of -1.01 ± 0.067.
For K55H, the abundance fitness was -0.106 ± 0.082.
S7C showed an abundance fitness of -0.026 ± 0.047.
In the case of H60V, the abundance fitness is reported as 0 ± 0.028.
Work on F21N yielded an abundance fitness of -0.962 ± 0.1.
For Q24E, the abundance fitness was -0.039 ± 0.035.
In the case of G25E, the abundance fitness is reported as -0.067 ± 0.061.
For I32T, the abundance fitness was -0.55 ± 0.044.
In the case of A52M, the abundance fitness is reported as -0.101 ± 0.051.
H60S gave an abundance fitness of -0.077 ± 0.027.
Variant S4Y has an abundance fitness of -0.164 ± 0.034.
Work on T22V yielded an abundance fitness of -0.036 ± 0.023.
K44D gave an abundance fitness of -0.011 ± 0.038.
For C14W, the abundance fitness was -0.61 ± 0.043.
For Q31A, the abundance fitness was -0.108 ± 0.031.
D38V showed an abundance fitness of 0.01 ± 0.032.
Work on E47T yielded an abundance fitness of -0.036 ± 0.032.
With D59Q the abundance fitness was -0.027 ± 0.045.
In the case of T23K, the abundance fitness is reported as -0.008 ± 0.032.
In the case of H60A, the abundance fitness is reported as -0.019 ± 0.037.
T22K showed an abundance fitness of -0.017 ± 0.028.
Variant H34K has an abundance fitness of -0.018 ± 0.04.
G13H gave an abundance fitness of -0.174 ± 0.095.
I5K gave an abundance fitness of -0.921 ± 0.067.
With I32E the abundance fitness was -0.925 ± 0.11.
With S15I the abundance fitness was -0.042 ± 0.04.
For Q31K, the abundance fitness was -0.296 ± 0.064.
Variant E65R has an abundance fitness of -0.065 ± 0.046.
With R11Q the abundance fitness was -0.08 ± 0.029.
For T22F, the abundance fitness was -0.102 ± 0.051.
Y30E showed an abundance fitness of -0.016 ± 0.031.
In the case of E33N, the abundance fitness is reported as -0.117 ± 0.041.
A41T gave an abundance fitness of -0.028 ± 0.032.
With L9R the abundance fitness was -0.83 ± 0.039.
T1R gave an abundance fitness of -0.199 ± 0.026.
Variant V6K has an abundance fitness of 0.009 ± 0.032.
E47S showed an abundance fitness of -0.02 ± 0.021.
